These results are taken from patent US20230303648A1 (OSE IMMUNOTHERAPEUTICS, published 2023).

Assay [1] deals with T1, CD127 recombinant protein (Histidine tagged, Sino ref 10975-H08H) (UniProt P16871 21-239).
T1 construct: bought; used in the CD127 sandwich ELISA; also called CD127 receptor; IL-7Ralpha; not shown: histidine tag
T1 sequence (looked up): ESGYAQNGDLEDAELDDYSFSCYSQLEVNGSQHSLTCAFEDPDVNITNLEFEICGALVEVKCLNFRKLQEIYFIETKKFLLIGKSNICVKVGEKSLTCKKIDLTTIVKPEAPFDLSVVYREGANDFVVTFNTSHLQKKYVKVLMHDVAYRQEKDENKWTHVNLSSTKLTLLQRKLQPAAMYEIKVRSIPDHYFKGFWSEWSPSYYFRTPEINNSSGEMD
Kind of assay: sandwich ELISA, PD-1 immobilised, molecule preincubated with His-tagged CD127, anti-His-biotin + streptavidin-peroxidase, 450 nm. As for the experimental part: Colorimetry was determined at 450 nm using TMB substrate. […] C.
Colorimetry was determined at 450 nm using TMB substrate.
For orientation: In an ELISA, binding on a coated surface is turned into a signal by an enzyme label.

The target of assay [2] is T2, biotinylated recombinant human PD-1 (human, UniProt Q15116 25-167, limits assumed, biotinylated (site not stated)).
T2 construct: used in solution in the PD-1/PD-L1 antagonist ELISA; also called PD-1 receptor
T2 sequence (Q15116 25-167 limits assumed): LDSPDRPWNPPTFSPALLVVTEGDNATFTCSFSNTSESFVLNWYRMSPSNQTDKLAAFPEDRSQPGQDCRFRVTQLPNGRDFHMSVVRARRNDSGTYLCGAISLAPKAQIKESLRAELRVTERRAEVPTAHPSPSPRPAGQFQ
The experiment in a line: competition ELISA: PD-L1 immobilised (competitor), biotinylated PD-1 at 0.6 µg/mL premixed with the molecule.

The target of assay [3] is T3, recombinant human PD-1 (rPD1; Sino Biologicals, reference 10377-H08H) (human, UniProt Q15116 25-167).
T3 construct: bought; also called hPD1; PD-1 receptor
T3 sequence (Q15116 25-167 limits assumed): as above
Kind of assay: ELISA: PD-1 immobilised, anti-human Fc peroxidase detection. How it is done:
A. PD-1 binding ELISA assay. Human recombinant PD-1 (rPD1) protein was immobilized, and antibodies were added at different concentrations. Revelation was performed with an anti-human Fc antibody coupled to peroxidase. Colorimetry was determined at 450 nm using TMB substrate. The anti PD-1 with 1 (anti PD-1*1 ▲ grey) or 2 anti PD-1 arms (anti PD-1*2 ◆) were tested as control. […] All constructions tested comprise a […] linker between the Fc and IL-7 domain.

Assay [4] has as its target T4, CD132 receptor (Sinobiological 10555-H08B) (UniProt P31785 23-254).
T4 construct: bought; analyte in the Biacore CD132 assay; also called common gamma chain
T4 sequence (looked up): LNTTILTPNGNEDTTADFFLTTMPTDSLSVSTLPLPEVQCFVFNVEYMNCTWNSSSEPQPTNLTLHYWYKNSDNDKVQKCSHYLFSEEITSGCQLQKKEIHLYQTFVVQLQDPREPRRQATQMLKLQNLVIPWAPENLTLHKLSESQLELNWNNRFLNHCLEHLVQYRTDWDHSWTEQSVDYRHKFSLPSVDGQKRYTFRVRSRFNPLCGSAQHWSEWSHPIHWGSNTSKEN
The experiment in a line: Biacore, steady-state model: CD127 immobilised, IgG4 alone injected, then CD132 at 31.25-500 nM; baseline of CD127 with CD132 in the absence of IL-7. In general terms: In SPR one partner is held on a chip, and binding of the other changes the refractive index at the surface.

Broadly, the EC50 (read off the curve) is the concentration needed to bring the measured effect to its halfway point. What is called EC50 is the concentration giving half of the maximal effect. Broadly, the Kd is the constant that tells how readily two partners part at equilibrium. Read a high Kd as weaker binding.

B1: anti PD-1 W142H bifunctional molecule with an isotype IgG1m + YTE (grey circle; no label printed on the sheet, name taken from legend paragraph 41) (other)
heavy: QIQLVQSGSELKKPGASVKVSCKASGYTFTHYAMNWVRQAPGQGLEWMGWINTNTGEPTYAQGFTGRFVFSLDTSVSTAYLQISSLKAEDTAVYYCAREREPGMDNWGQGTLVTVSSASTKGPSVFPLAPSSKSTSGGTAALGCLVKDYFPEPVTVSWNSGALTSGVHTFPAVLQSSGLYSLSSVVTVPSSSLGTQTYICNVNHKPSNTKVDKKVEPKSCDKTHTCPPCPAPELLGGPSVFLFPPKPKDTLYITREPEVTCVVVDVSHEDPEVKFNWYVDGVEVHNAKTKPREEQYASTYRVVSVLTVLHQDWLNGKEYKCKVSNKALPAPIEKTISKAKGQPREPQVYTLPPSRDELTKNQVSLTCLVKGFYPSDIAVEWESNGQPENNYKTTPPVLDSDGSFFLYSKLTVDKSRWQQGNVFSCSVMHEALHNHYTQKSLSLSPGKGGGGSGGGGSGGGGSDCDIEGKDGKQYESVLMVSIDQLLDSMKEIGSNCLNNEFNFFKRHICDANKEGMFLFRAARKLRQFLKMNSTGDFDLHLLKVSEGTTILLNCTGQVKGRKPAALGEAQPTKSLEENKSLKEQKKLNDLCFLKRLLQEIKTCHNKILMGTKEH
light: DVVMTQSPLSLPVTLGQPASISCRSSQSLVHANTNTYLEWYQQRPGQSPRLLIYKVSNRFSGVPDRFSGSGSGTDFTLKISRVEAEDVGVYYCFQGTHVPNTFGQGTKLEIKRTVAAPSVFIFPPSDEQLKSGTASVVCLLNNFYPREAKVQWKVDNALQSGNSQESVTEQDSKDSTYSLSSTLTLSKADYEKHKVYACEVTHQGLSSPVTKSFNRGEC
notes: also called anti PD-1 IL-7 W142H IgG1m + YTE
As for B1, in assay [1], the “EC50 (read off the curve)” value is roughly 50 ng/mL.

B2: anti-PD-1*1 (control construction, one anti PD-1 arm, devoid of IL-7 variant) (antibody, human IgG1, kappa, N297A)
heavy: QIQLVQSGSELKKPGASVKVSCKASGYTFTHYAMNWVRQAPGQGLEWMGWINTNTGEPTYAQGFTGRFVFSLDTSVSTAYLQISSLKAEDTAVYYCAREREPGMDNWGQGTLVTVSSASTKGPSVFPLAPSSKSTSGGTAALGCLVKDYFPEPVTVSWNSGALTSGVHTFPAVLQSSGLYSLSSVVTVPSSSLGTQTYICNVNHKPSNTKVDKKVEPKSCDKTHTCPPCPAPELLGGPSVFLFPPKPKDTLMISRTPEVTCVVVDVSHEDPEVKFNWYVDGVEVHNAKTKPREEQYASTYRVVSVLTVLHQDWLNGKEYKCKVSNKALPAPIEKTISKAKGQPREPQVYTLPPCRDELTKNQVSLWCLVKGFYPSDIAVEWESNGQPENNYKTTPPVLDSDGSFFLYSKLTVDKSRWQQGNVFSCSVMHEALHNHYTQKSLSLSPGK
chain: DKTHTCPPCPAPELLGGPSVFLFPPKPKDTLMISRTPEVTCVVVDVSHEDPEVKFNWYVDGVEVHNAKTKPREEQYASTYRVVSVLTVLHQDWLNGKEYKCKVSNKALPAPIEKTISKAKGQPREPQVYTLPPCRDELTKNQVSLWCLVKGFYPSDIAVEWESNGQPENNYKTTPPVLDSDGSFFLYSKLTVDKSRWQQGNVFSCSVMHEALHNHYTQKSLSLSPGK
light: DVVMTQSPLSLPVTLGQPASISCRSSQSLVHANTNTYLEWYQQRPGQSPRLLIYKVSNRFSGVPDRFSGSGSGTDFTLKISRVEAEDVGVYYCFQGTHVPNTFGQGTKLEIKRTVAAPSVFIFPPSDEQLKSGTASVVCLLNNFYPREAKVQWKVDNALQSGNSQESVTEQDSKDSTYSLSSTLTLSKADYEKHKVYACEVTHQGLSSPVTKSFNRGEC
notes: one-armed antibody, IgG1 N298A
As for B2, the EC50 in assay [2] came to 5.01 nM; in assay [3], 0.238 nM.

B3: CD127 (Sinobiological, 10975-H03H-50) (receptor, UniProt P16871 21-239, looked up)
chain: ESGYAQNGDLEDAELDDYSFSCYSQLEVNGSQHSLTCAFEDPDVNITNLEFEICGALVEVKCLNFRKLQEIYFIETKKFLLIGKSNICVKVGEKSLTCKKIDLTTIVKPEAPFDLSVVYREGANDFVVTFNTSHLQKKYVKVLMHDVAYRQEKDENKWTHVNLSSTKLTLLQRKLQPAAMYEIKVRSIPDHYFKGFWSEWSPSYYFRTPEINNSSGEMD
notes: bought; immobilised on the CM5 chip in the Biacore assays; also called CD127 receptor
Consider B3, for which binding in assay [4] was characterised by a dissociation constant (Kd) of 2500 nM.

B4: anti-PD1*2 (control antibody without any IL7) (antibody, IgG4, V domains shown)
VH: QIQLVQSGSELKKPGASVKVSCKASGYTFTHYAMNWVRQAPGQGLEWMGWINTNTGEPTYAQGFTGRFVFSLDTSVSTAYLQISSLKAEDTAVYYCAREREPGMDNWGQGTLVTVSS
VL: DVVMTQSPLSLPVTLGQPASISCRSSQSLVHANTNTYLEWYQQRPGQSPRLLIYKVSNRFSGVPDRFSGSGSGTDFTLKISRVEAEDVGVYYCFQGTHVPNTFGQGTKLEIKR
notes: two anti PD-1 arms
In the case of B4, the EC50 in assay [3] was determined as 0.021 nM.
